From patent US20160257732A1 (published 2016)
Where “and” joins values, the source holds several entries; their conditions need not be identical. Identical values can stand only once. Like-named read-outs stand apart in the source and are kept apart here.

Assays:
Experiment in all cases: cell-based or functional assay
[1] = target: HA of ca A/Hong Kong/213/03 (H5N1) (influenza A virus)
[2] = target: T1, HA of ca A/Brit. Columbia/CN-6/04 (H7N3-LP) (influenza A virus)
[3] = target: HA of ca A/swine/Missouri/06 (H2N3) (influenza A virus)
[4] = target: HA of ca A/Vietnam/1203/04 (H5N1) (influenza A virus)
[5] = target: HA of A/Wisconsin/67/05 (H3N2) (influenza A virus)
[6] = target: HA of ca A/Texas/36/91 (H1N1) (influenza A virus)
[7] = target: HA of ca A/Beijing/262/95 (H1N1) (influenza A virus)
[8] = target: HA of ca A/Sydney/5/97 (H3N2) (influenza A virus)
[9] = target: HA of A/Victoria/3/75 (H3N2) (influenza A virus)
[10] = target: HA of ca A/Panama/2007/99 (H3N2) (influenza A virus)
[11] = target: HA of A/Fort Monmouth/1/47 (H1N1) (influenza A virus)
[12] = target: HA of A/New Jersey/8/76 (H1N1) (influenza A virus)
[13] = target: HA of ca A/teal/Hong Kong/W312/97 (H6N1) (influenza A virus)
[14] = target: HA of ca A/New Caledonia/20/99 (H1N1) (influenza A virus)
[15] = target: HA of ca A/Netherlands/219/03 (H7N7) (influenza A virus)
[16] = target: T2, HA of ca A/chicken/Hong Kong/G9/97 (H9N2) (influenza A virus)
[17] = target: HA of A/Wyoming/03/03 (H3N2) (influenza A virus)
[18] = target: HA of A/Hong Kong/8/68 (H3N2) (influenza A virus)
[19] = target: HA of A/Kawasaki/9/86 (H1N1) (influenza A virus)
[20] = target: HA of ca A/Perth/16/09 (H3N2) (influenza A virus)
[21] = target: HA of ca A/Hong Kong/213/03 (H5N1) (influenza A virus); remark: listed apart in the source
[22] = target: T1, HA of ca A/Brit. Columbia/CN-6/04 …; remark: listed apart in the source
[23] = target: HA of ca A/swine/Missouri/06 (H2N3) (influenza A virus); remark: listed apart in the source
[24] = target: HA of ca A/Vietnam/1203/04 (H5N1) (influenza A virus); remark: listed apart in the source
[25] = target: HA of ca A/mallard/Alberta/89/85 (H6N2) (influenza A virus)
[26] = target: HA of ca A/Texas/36/91 (H1N1) (influenza A virus); remark: listed apart in the source
[27] = target: HA of ca A/Beijing/262/95 (H1N1) (influenza A virus); remark: listed apart in the source
[28] = target: HA of ca A/Sydney/5/97 (H3N2) (influenza A virus); remark: listed apart in the source
[29] = target: HA of A/Victoria/3/75 (H3N2) (influenza A virus); remark: listed apart in the source
[30] = target: HA of A/Fort Monmouth/1/47 (H1N1) (influenza A virus); remark: listed apart in the source
HA of virus H1-BS10 = target: HA of virus H1-BS10
[31] = target: HA of A/New Jersey/8/76 (H1N1) (influenza A virus); remark: listed apart in the source
[32] = target: HA of ca A/teal/Hong Kong/W312/97 (H6N1) (influenza A virus); remark: listed apart in the source
[33] = target: HA of ca A/New Caledonia/20/99 (H1N1) (influenza A virus); remark: listed apart in the source
[34] = target: HA of ca A/Netherlands/219/03 (H7N7) (influenza A virus); remark: listed apart in the source
[35] = target: T2, HA of ca A/chicken/Hong Kong/G9/97 …; remark: listed apart in the source
[36] = target: HA of ca A/Japan/57 (H2N2) (influenza A virus)
[37] = target: HA of A/Hong Kong/8/68 (H3N2) (influenza A virus); remark: listed apart in the source
[38] = target: HA of ca A/Anhui/1/13 (H7N9) (influenza A virus)
[39] = target: HA of A/Victoria/361/11 (H3N2) (influenza A virus)
[40] = target: HA of A/Kawasaki/9/86 (H1N1) (influenza A virus); remark: listed apart in the source
[41] = target: HA of ca A/Perth/16/09 (H3N2) (influenza A virus); remark: listed apart in the source
[42] = target: HA of swine-origin A/Minnesota/11/2010 H3N2 virus (influenza A virus)
[43] = target: HA of A/Wisconsin/67/05 (H3N2) (influenza A virus); remark: listed apart in the source
[44] = target: HA of ca A/Panama/2007/99 (H3N2) (influenza A virus); remark: listed apart in the source

B1: Antibody 8 (antibody, V domains shown)
VH: QVQLQQSGPGLVKPSQTLSLTCVISGDTVSSNRATWNWMRQSPLRGLEWLGRTYYRSKWYNDYAVSVKSRVVINPDTSKNQVSLQLNTVTPDDSGVYFCARGGHITVFGVNIDAFDIWGLGTKVTVSS
VL: DIQMTQSPSSLSASVGDRVTISCRASQRLNSYLHWYQQTPGQAPKLLIYATSTLQSGVSPRFSGSGSGTDFTLTISSLQPEDVATYYCQLSRTFGHGTKVEIK
Neutralization IC50, H5-HK03 [1]: 1.82 µg/mL
Neutralization IC50, H7-BC04 [2]: 14.7 µg/mL
Neutralization IC50, H2-MO06 [3]: 2.62 µg/mL
Neutralization IC50, H5-VM04 [4]: 3.9 µg/mL
Neutralization IC50, H3-WI05 [5]: > 50 µg/mL
Neutralization IC50, H1-TX91 [6]: 0.7 µg/mL
Neutralization IC50, H1-BJ95 [7]: 10.6 µg/mL
Neutralization IC50, H3-Syd97 [8]: > 50 µg/mL
Neutralization IC50, H3-Vic75 [9]: 3.83 µg/mL
Neutralization IC50, H3-Pa99 [10]: > 50 µg/mL
Neutralization IC50, H1-FM47 [11]: 1.37 µg/mL
Neutralization IC50, H1-NJ76 [12]: 2.26 µg/mL
Neutralization IC50, H6-HK97 [13]: 2.97 µg/mL
Neutralization IC50, H1-Ncal99 [14]: 2.06 µg/mL
Neutralization IC50, H7-NLD03 [15]: 12.8 µg/mL
Neutralization IC50, H9-HK97 [16]: 26.4 µg/mL
Neutralization IC50, H3-Wy03 [17]: > 50 µg/mL
Neutralization IC50, H3-HK68 [18]: 2.82 µg/mL
Neutralization IC50, H1-Kaw86 [19]: 2.11 µg/mL
Neutralization IC50, H3-Perth09 [20]: > 50 µg/mL

B2: Antibody 6 (antibody, V domains shown)
VH: QVQLQQSGPGLVKPSQTLSLTCAISGDRVSSNSAVWNWIRQSPSRGLEWLGRTYYRSKWYYDYAESVKSRIVIDPDTSKNQVSLQLNSVTPEDSAIYYCARGGHITEFGLNIDAYDIWGQGAMVTVSS
VL: DIQMTQSPSSLSASVGDRVTISCRAQSLSSYLHWYQQKPGQPPKLLIYAATTLQSGVPSRFSGSGSGTDFTLTISTFQAEDVATYYCQQSRTFGQGTKVEIK
Neutralization IC50, H5-HK03 [1]: 10.4 µg/mL
Neutralization IC50, H7-BC04 [2]: > 50 µg/mL
Neutralization IC50, H2-MO06 [3]: 2.9 µg/mL
Neutralization IC50, H5-VM04 [4]: 8.87 µg/mL
Neutralization IC50, H3-WI05 [5]: 6.76 µg/mL
Neutralization IC50, H1-TX91 [6]: 2.2 µg/mL
Neutralization IC50, H1-BJ95 [7]: 20.9 µg/mL
Neutralization IC50, H3-Syd97 [8]: 6.54 µg/mL
Neutralization IC50, H3-Vic75 [9]: 1.09 µg/mL
Neutralization IC50, H3-Pa99 [10]: 25.8 µg/mL
Neutralization IC50, H1-FM47 [11]: 3.04 µg/mL
Neutralization IC50, H1-NJ76 [12]: 2.6 µg/mL
Neutralization IC50, H6-HK97 [13]: 3.23 µg/mL
Neutralization IC50, H1-Ncal99 [14]: 3 µg/mL
Neutralization IC50, H7-NLD03 [15]: > 50 µg/mL
Neutralization IC50, H9-HK97 [16]: 16.5 µg/mL
Neutralization IC50, H3-Wy03 [17]: 4.7 µg/mL
Neutralization IC50, H3-HK68 [18]: 2.04 µg/mL
Neutralization IC50, H1-Kaw86 [19]: 3.51 µg/mL
Neutralization IC50, H3-Perth09 [20]: 5.03 µg/mL

B3: Antibody 12 (antibody, V domains shown)
VH: QVQLQQSGPGLVKPSQTLSLTCAISGDSVSSYNAVWNWIRQSPSRGLEWLGRTYYRSGWYNDYAESVKSRITINPDTSKNQFSLQLNSVTPEDTAVYYCARSGHITVFGVNVDAFDMWGQGTMVTVSS
VL: DIQMTQSPSSLSASVGDRVTITCRTSQSLSSYTHWYQQKPGKAPKLLIYAASSRGSGVPSRFSGSGSGTDFTLTISSLQPEDFATYYCQQSRTFGQGTKVEIK
Neutralization IC50, H5-HK03 [21]: 0.17 µg/mL
Neutralization IC50, H7-BC04 [22]: 0.78 µg/mL
Neutralization IC50, H2-MO06 [23]: 0.53 µg/mL
Neutralization IC50, H5-VM04 [24]: 0.31 µg/mL
Neutralization IC50, H6-AB85 [25]: 0.32 µg/mL
Neutralization IC50, H1-TX91 [26]: 0.12 µg/mL
Neutralization IC50, H1-BJ95 [27]: 1.31 µg/mL
Neutralization IC50, H3-Syd97 [28]: 1.56 µg/mL
Neutralization IC50, H3-Vic75 [29]: 0.32 µg/mL
Neutralization IC50, H1-FM47 [30]: 0.28 µg/mL
Neutralization IC50, H1-BS10 (HA of virus H1-BS10): 1.25 µg/mL
Neutralization IC50, H1-NJ76 [31]: 0.12 µg/mL
Neutralization IC50, H6-HK97 [32]: 0.45 µg/mL
Neutralization IC50, H1-Ncal99 [33]: 0.61 µg/mL
Neutralization IC50, H7-NLD03 [34]: 0.83 µg/mL
Neutralization IC50, H9-HK97 [35]: 0.31 µg/mL
Neutralization IC50, H2-JP57 [36]: 0.35 µg/mL
Neutralization IC50, H3-HK68 [37]: 0.42 µg/mL
Neutralization IC50, H7-ANU13 [38]: 2.56 µg/mL
Neutralization IC50, H3-VC11 [39]: 0.83 µg/mL
Neutralization IC50, H1-Kaw86 [40]: 0.28 µg/mL
Neutralization IC50, H3-Perth09 [41]: 0.25 µg/mL
Neutralizing activity IC50, swine-origin A/Minnesota/11/2010 [42]: 1.1 µg/mL and 1.2 µg/mL

B4: Antibody 14 (antibody, V domains shown)
VH: QVQLQQSGPGLVKPSQTLSLTCAISGDSVSSNNAVWNWIRQSPSRGLEWLGRTYYRSKWYNDYAESVKSRITINPDTSKNQFSLQLNSVTPEDTAVYYCARSGHITVFGVNVDAFDMWGQGTTVTVSS
VL: DIQMTQSPSSLSASVGDRVTITCRTSQSLSSYTHWYQQKPGKAPKLLIYAASSRLSGVPSRFSGSGSGTDFTLTISSLQPEDFATYYCQQSRTFGQGTKVEIK
Neutralization IC50, H5-HK03 [21]: 0.21 µg/mL
Neutralization IC50, H7-BC04 [22]: 0.86 µg/mL
Neutralization IC50, H2-MO06 [23]: 0.65 µg/mL
Neutralization IC50, H5-VM04 [24]: 0.33 µg/mL
Neutralization IC50, H6-AB85 [25]: 0.26 µg/mL
Neutralization IC50, H3-WI05 [43]: 1.19 µg/mL
Neutralization IC50, H1-TX91 [26]: 0.09 µg/mL
Neutralization IC50, H1-BJ95 [27]: 2.09 µg/mL
Neutralization IC50, H3-Syd97 [28]: 1.82 µg/mL
Neutralization IC50, H3-Vic75 [29]: 0.44 µg/mL
Neutralization IC50, H3-Pa99 [44]: 4.36 µg/mL
Neutralization IC50, H1-FM47 [30]: 0.44 µg/mL
Neutralization IC50, H1-BS10 (HA of virus H1-BS10): 1.93 µg/mL
Neutralization IC50, H1-NJ76 [31]: 0.11 µg/mL
Neutralization IC50, H6-HK97 [32]: 0.26 µg/mL
Neutralization IC50, H1-Ncal99 [33]: 0.67 µg/mL
Neutralization IC50, H7-NLD03 [34]: 1.16 µg/mL
Neutralization IC50, H9-HK97 [35]: 0.44 µg/mL
Neutralization IC50, H2-JP57 [36]: 0.67 µg/mL
Neutralization IC50, H3-HK68 [37]: 0.65 µg/mL
Neutralization IC50, H7-ANU13 [38]: 2.12 µg/mL
Neutralization IC50, H3-VC11 [39]: 1.15 µg/mL
Neutralization IC50, H1-Kaw86 [40]: 0.35 µg/mL
Neutralization IC50, H3-Perth09 [41]: 0.47 µg/mL
Neutralizing activity IC50, swine-origin A/Minnesota/11/2010 [42]: 1.4 µg/mL and 2.3 µg/mL
